Numbered stars: 1 amine (or outer) side, 2 acyl side, 3 side chain; on linkers, the order of the positions; unused ones are H or OH. Bridge positions count the residues as written; N and C are the ends. Side chains are listed from the residue outwards. Ends that are not written are not given here. * marks the point of attachment. C20 diacid = O=C(O)CCCCCCCCCCCCCCCCCCC(=O)*; γGlu = O=C(O)[C@H](CCC(=O)[*:2])N[*:1]
B1: N^ε1-[(4S)-4-carboxy-4-(19-carboxynonadecanoylamino)butanoyl]-[Ala14,Arg17,Pro21,Pro27,His34]-h-amylin (peptide)
peptide: K([γGlu-C20 diacid])CNTATCATQRLAAFLRHSSPNFGAIPSSTNVGHNTY-NH2
modifications: disulfide 2-7; N-terminus assumed
SMILES: CC[C@H](C)[C@H](NC(=O)[C@H](C)NC(=O)CNC(=O)[C@H](Cc1ccccc1)NC(=O)[C@H](CC(N)=O)NC(=O)[C@@H]1CCCN1C(=O)[C@H](CO)NC(=O)[C@H](CO)NC(=O)[C@H](Cc1c[nH]cn1)NC(=O)[C@H](CCCNC(=N)N)NC(=O)[C@H](CC(C)C)NC(=O)[C@H](Cc1ccccc1)NC(=O)[C@H](C)NC(=O)[C@H](C)NC(=O)[C@H](CC(C)C)NC(=O)[C@H](CCCNC(=N)N)NC(=O)[C@H](CCC(N)=O)NC(=O)[C@@H](NC(=O)[C@H](C)NC(=O)[C@@H]1CSSC[C@H](NC(=O)[C@@H](N)CCCCNC(=O)CC[C@H](NC(=O)CCCCCCCCCCCCCCCCCCC(=O)O)C(=O)O)C(=O)N[C@@H](CC(N)=O)C(=O)N[C@@H]([C@@H](C)O)C(=O)N[C@@H](C)C(=O)N[C@@H]([C@@H](C)O)C(=O)N1)[C@@H](C)O)C(=O)N1CCC[C@H]1C(=O)N[C@@H](CO)C(=O)N[C@@H](CO)C(=O)N[C@H](C(=O)N[C@@H](CC(N)=O)C(=O)N[C@H](C(=O)NCC(=O)N[C@@H](Cc1c[nH]cn1)C(=O)N[C@@H](CC(N)=O)C(=O)N[C@H](C(=O)N[C@@H](Cc1ccc(O)cc1)C(N)=O)[C@@H](C)O)C(C)C)[C@@H](C)O
notes: also called 14A, 17R, 21P, 27P, 34H
B2: N^ε1-[(4S)-4-carboxy-4-(19-carboxynonadecanoylamino)butanoyl]-[Ala14,Arg17,Pro21,Pro27,Pro34]-h-amylin (peptide)
peptide: K([γGlu-C20 diacid])CNTATCATQRLAAFLRHSSPNFGAIPSSTNVGPNTY-NH2
modifications: disulfide 2-7; N-terminus assumed
SMILES: CC[C@H](C)[C@H](NC(=O)[C@H](C)NC(=O)CNC(=O)[C@H](Cc1ccccc1)NC(=O)[C@H](CC(N)=O)NC(=O)[C@@H]1CCCN1C(=O)[C@H](CO)NC(=O)[C@H](CO)NC(=O)[C@H](Cc1c[nH]cn1)NC(=O)[C@H](CCCNC(=N)N)NC(=O)[C@H](CC(C)C)NC(=O)[C@H](Cc1ccccc1)NC(=O)[C@H](C)NC(=O)[C@H](C)NC(=O)[C@H](CC(C)C)NC(=O)[C@H](CCCNC(=N)N)NC(=O)[C@H](CCC(N)=O)NC(=O)[C@@H](NC(=O)[C@H](C)NC(=O)[C@@H]1CSSC[C@H](NC(=O)[C@@H](N)CCCCNC(=O)CC[C@H](NC(=O)CCCCCCCCCCCCCCCCCCC(=O)O)C(=O)O)C(=O)N[C@@H](CC(N)=O)C(=O)N[C@@H]([C@@H](C)O)C(=O)N[C@@H](C)C(=O)N[C@@H]([C@@H](C)O)C(=O)N1)[C@@H](C)O)C(=O)N1CCC[C@H]1C(=O)N[C@@H](CO)C(=O)N[C@@H](CO)C(=O)N[C@H](C(=O)N[C@@H](CC(N)=O)C(=O)N[C@H](C(=O)NCC(=O)N1CCC[C@H]1C(=O)N[C@@H](CC(N)=O)C(=O)N[C@H](C(=O)N[C@@H](Cc1ccc(O)cc1)C(N)=O)[C@@H](C)O)C(C)C)[C@@H](C)O
notes: also called 14A, 17R, 21P, 27P, 34P
B3: N^ε1-[(4S)-4-carboxy-4-(19-carboxynonadecanoylamino)butanoyl]-[Arg14,Arg17,Pro21,Pro27,Pro34]-h-amylin (peptide)
peptide: K([γGlu-C20 diacid])CNTATCATQRLARFLRHSSPNFGAIPSSTNVGPNTY-NH2
modifications: disulfide 2-7; N-terminus assumed
SMILES: CC[C@H](C)[C@H](NC(=O)[C@H](C)NC(=O)CNC(=O)[C@H](Cc1ccccc1)NC(=O)[C@H](CC(N)=O)NC(=O)[C@@H]1CCCN1C(=O)[C@H](CO)NC(=O)[C@H](CO)NC(=O)[C@H](Cc1c[nH]cn1)NC(=O)[C@H](CCCNC(=N)N)NC(=O)[C@H](CC(C)C)NC(=O)[C@H](Cc1ccccc1)NC(=O)[C@H](CCCNC(=N)N)NC(=O)[C@H](C)NC(=O)[C@H](CC(C)C)NC(=O)[C@H](CCCNC(=N)N)NC(=O)[C@H](CCC(N)=O)NC(=O)[C@@H](NC(=O)[C@H](C)NC(=O)[C@@H]1CSSC[C@H](NC(=O)[C@@H](N)CCCCNC(=O)CC[C@H](NC(=O)CCCCCCCCCCCCCCCCCCC(=O)O)C(=O)O)C(=O)N[C@@H](CC(N)=O)C(=O)N[C@@H]([C@@H](C)O)C(=O)N[C@@H](C)C(=O)N[C@@H]([C@@H](C)O)C(=O)N1)[C@@H](C)O)C(=O)N1CCC[C@H]1C(=O)N[C@@H](CO)C(=O)N[C@@H](CO)C(=O)N[C@H](C(=O)N[C@@H](CC(N)=O)C(=O)N[C@H](C(=O)NCC(=O)N1CCC[C@H]1C(=O)N[C@@H](CC(N)=O)C(=O)N[C@H](C(=O)N[C@@H](Cc1ccc(O)cc1)C(N)=O)[C@@H](C)O)C(C)C)[C@@H](C)O
notes: also called 14R, 17R, 21P, 27P, 34P
B4: N^ε1-[(4S)-4-carboxy-4-(19-carboxynonadecanoylamino)butanoyl]-[Arg17,Pro21,Pro27,Arg34]-h-amylin (peptide)
peptide: K([γGlu-C20 diacid])CNTATCATQRLANFLRHSSPNFGAIPSSTNVGRNTY-NH2
modifications: disulfide 2-7; N-terminus assumed
SMILES: CC[C@H](C)[C@H](NC(=O)[C@H](C)NC(=O)CNC(=O)[C@H](Cc1ccccc1)NC(=O)[C@H](CC(N)=O)NC(=O)[C@@H]1CCCN1C(=O)[C@H](CO)NC(=O)[C@H](CO)NC(=O)[C@H](Cc1c[nH]cn1)NC(=O)[C@H](CCCNC(=N)N)NC(=O)[C@H](CC(C)C)NC(=O)[C@H](Cc1ccccc1)NC(=O)[C@H](CC(N)=O)NC(=O)[C@H](C)NC(=O)[C@H](CC(C)C)NC(=O)[C@H](CCCNC(=N)N)NC(=O)[C@H](CCC(N)=O)NC(=O)[C@@H](NC(=O)[C@H](C)NC(=O)[C@@H]1CSSC[C@H](NC(=O)[C@@H](N)CCCCNC(=O)CC[C@H](NC(=O)CCCCCCCCCCCCCCCCCCC(=O)O)C(=O)O)C(=O)N[C@@H](CC(N)=O)C(=O)N[C@@H]([C@@H](C)O)C(=O)N[C@@H](C)C(=O)N[C@@H]([C@@H](C)O)C(=O)N1)[C@@H](C)O)C(=O)N1CCC[C@H]1C(=O)N[C@@H](CO)C(=O)N[C@@H](CO)C(=O)N[C@H](C(=O)N[C@@H](CC(N)=O)C(=O)N[C@H](C(=O)NCC(=O)N[C@@H](CCCNC(=N)N)C(=O)N[C@@H](CC(N)=O)C(=O)N[C@H](C(=O)N[C@@H](Cc1ccc(O)cc1)C(N)=O)[C@@H](C)O)C(C)C)[C@@H](C)O
notes: also called 17R, 21P, 27P, 34R
B5: N^ε1-[(4S)-4-carboxy-4-(19-carboxynonadecanoylamino)butanoyl]-[Arg17,Pro21,Pro27,His34]-h-amylin (peptide)
peptide: K([γGlu-C20 diacid])CNTATCATQRLANFLRHSSPNFGAIPSSTNVGHNTY-NH2
modifications: disulfide 2-7; N-terminus assumed
SMILES: CC[C@H](C)[C@H](NC(=O)[C@H](C)NC(=O)CNC(=O)[C@H](Cc1ccccc1)NC(=O)[C@H](CC(N)=O)NC(=O)[C@@H]1CCCN1C(=O)[C@H](CO)NC(=O)[C@H](CO)NC(=O)[C@H](Cc1c[nH]cn1)NC(=O)[C@H](CCCNC(=N)N)NC(=O)[C@H](CC(C)C)NC(=O)[C@H](Cc1ccccc1)NC(=O)[C@H](CC(N)=O)NC(=O)[C@H](C)NC(=O)[C@H](CC(C)C)NC(=O)[C@H](CCCNC(=N)N)NC(=O)[C@H](CCC(N)=O)NC(=O)[C@@H](NC(=O)[C@H](C)NC(=O)[C@@H]1CSSC[C@H](NC(=O)[C@@H](N)CCCCNC(=O)CC[C@H](NC(=O)CCCCCCCCCCCCCCCCCCC(=O)O)C(=O)O)C(=O)N[C@@H](CC(N)=O)C(=O)N[C@@H]([C@@H](C)O)C(=O)N[C@@H](C)C(=O)N[C@@H]([C@@H](C)O)C(=O)N1)[C@@H](C)O)C(=O)N1CCC[C@H]1C(=O)N[C@@H](CO)C(=O)N[C@@H](CO)C(=O)N[C@H](C(=O)N[C@@H](CC(N)=O)C(=O)N[C@H](C(=O)NCC(=O)N[C@@H](Cc1c[nH]cn1)C(=O)N[C@@H](CC(N)=O)C(=O)N[C@H](C(=O)N[C@@H](Cc1ccc(O)cc1)C(N)=O)[C@@H](C)O)C(C)C)[C@@H](C)O
notes: also called 17R, 21P, 27P, 34H
B6: N^ε1-[(4S)-4-carboxy-4-(19-carboxynonadecanoylamino)butanoyl]-[Arg17,Pro21,Pro27,His35]-h-amylin (peptide)
peptide: K([γGlu-C20 diacid])CNTATCATQRLANFLRHSSPNFGAIPSSTNVGSHTY-NH2
modifications: disulfide 2-7; N-terminus assumed
SMILES: CC[C@H](C)[C@H](NC(=O)[C@H](C)NC(=O)CNC(=O)[C@H](Cc1ccccc1)NC(=O)[C@H](CC(N)=O)NC(=O)[C@@H]1CCCN1C(=O)[C@H](CO)NC(=O)[C@H](CO)NC(=O)[C@H](Cc1c[nH]cn1)NC(=O)[C@H](CCCNC(=N)N)NC(=O)[C@H](CC(C)C)NC(=O)[C@H](Cc1ccccc1)NC(=O)[C@H](CC(N)=O)NC(=O)[C@H](C)NC(=O)[C@H](CC(C)C)NC(=O)[C@H](CCCNC(=N)N)NC(=O)[C@H](CCC(N)=O)NC(=O)[C@@H](NC(=O)[C@H](C)NC(=O)[C@@H]1CSSC[C@H](NC(=O)[C@@H](N)CCCCNC(=O)CC[C@H](NC(=O)CCCCCCCCCCCCCCCCCCC(=O)O)C(=O)O)C(=O)N[C@@H](CC(N)=O)C(=O)N[C@@H]([C@@H](C)O)C(=O)N[C@@H](C)C(=O)N[C@@H]([C@@H](C)O)C(=O)N1)[C@@H](C)O)C(=O)N1CCC[C@H]1C(=O)N[C@@H](CO)C(=O)N[C@@H](CO)C(=O)N[C@H](C(=O)N[C@@H](CC(N)=O)C(=O)N[C@H](C(=O)NCC(=O)N[C@@H](CO)C(=O)N[C@@H](Cc1c[nH]cn1)C(=O)N[C@H](C(=O)N[C@@H](Cc1ccc(O)cc1)C(N)=O)[C@@H](C)O)C(C)C)[C@@H](C)O
notes: also called 17R, 21P, 27P, 35H

target: T1, human amylin receptor (human, UniProt P30988 25-474; O60896 24-148, limits assumed); assay: SPA competition binding, displacement of 125I-rat amylin from membranes with human amylin 3(a) receptor (Assay V)
T1 construct: whole, on cells; Calcitonin receptor plus RAMP-3 gives the amylin 3(a) receptor; membranes of Amylin 3(a)/CRE-luc cells were used; also called hAmylin-R; hAmylinR
T1 sequence (looked up) 1: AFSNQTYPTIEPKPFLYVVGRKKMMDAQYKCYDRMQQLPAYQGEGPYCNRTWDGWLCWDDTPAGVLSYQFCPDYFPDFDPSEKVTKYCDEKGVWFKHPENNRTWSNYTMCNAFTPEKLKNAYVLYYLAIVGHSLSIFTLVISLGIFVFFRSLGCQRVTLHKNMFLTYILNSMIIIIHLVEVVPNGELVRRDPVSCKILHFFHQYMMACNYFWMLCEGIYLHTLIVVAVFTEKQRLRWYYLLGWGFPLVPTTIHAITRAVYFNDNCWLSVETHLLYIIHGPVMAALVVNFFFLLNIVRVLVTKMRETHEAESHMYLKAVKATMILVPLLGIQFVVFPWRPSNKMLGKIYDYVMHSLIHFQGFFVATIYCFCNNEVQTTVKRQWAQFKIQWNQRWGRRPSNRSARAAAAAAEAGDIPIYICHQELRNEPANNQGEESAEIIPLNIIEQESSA
T1 sequence (looked up) 2: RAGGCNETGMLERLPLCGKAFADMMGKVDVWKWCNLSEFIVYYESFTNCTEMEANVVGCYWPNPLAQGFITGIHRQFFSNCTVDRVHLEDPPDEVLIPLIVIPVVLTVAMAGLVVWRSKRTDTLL
In short: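 Cell membranes were prepared by homogenisation in Na-HEPES/EDTA buffer, pH 7.4, and stored at −80° C. They were then coupled to SPA beads at 35 ng/μL final and exposed to compounds in assay buffer containing CaCl2, MgCl₂, OA and Tween20. After 120 min at 25° C, plates were counted and IC₅₀ derived.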

In order of rising IC50:
1. B2  0.148 nM
2. B1  0.176 nM
3. B5  0.428 nM
4. B3  0.649 nM
5. B6  0.695 nM
6. B4  0.79 nM
